Assay results as given in patent US20240166747A1 (GlaxoSmithKline, published 2024).

T1: human CD96v1 expressed on HEK cells (human, UniProt P40200 22-585)
T1 construct: whole, on cells
T1 sequence (looked up): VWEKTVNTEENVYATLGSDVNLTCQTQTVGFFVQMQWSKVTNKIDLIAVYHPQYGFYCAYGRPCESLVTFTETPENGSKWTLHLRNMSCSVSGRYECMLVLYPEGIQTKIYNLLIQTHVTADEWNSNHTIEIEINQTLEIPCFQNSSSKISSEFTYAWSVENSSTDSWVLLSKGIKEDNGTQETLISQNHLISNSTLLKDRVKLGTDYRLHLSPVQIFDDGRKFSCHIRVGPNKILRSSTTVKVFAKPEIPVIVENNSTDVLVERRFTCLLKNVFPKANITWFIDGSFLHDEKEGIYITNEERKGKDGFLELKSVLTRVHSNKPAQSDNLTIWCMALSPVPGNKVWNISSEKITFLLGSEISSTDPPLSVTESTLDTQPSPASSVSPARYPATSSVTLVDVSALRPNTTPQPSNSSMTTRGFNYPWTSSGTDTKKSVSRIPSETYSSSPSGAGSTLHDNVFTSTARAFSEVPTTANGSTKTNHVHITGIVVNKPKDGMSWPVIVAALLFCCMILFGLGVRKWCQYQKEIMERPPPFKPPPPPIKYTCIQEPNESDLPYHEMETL

T2: cynomolgus monkey CD96v2 expressed on cells (cynomolgus monkey, UniProt A0A2K5TWV6 22-569)
T2 construct: also called CHO-cyCD96; Cyno CD96v2
T2 sequence: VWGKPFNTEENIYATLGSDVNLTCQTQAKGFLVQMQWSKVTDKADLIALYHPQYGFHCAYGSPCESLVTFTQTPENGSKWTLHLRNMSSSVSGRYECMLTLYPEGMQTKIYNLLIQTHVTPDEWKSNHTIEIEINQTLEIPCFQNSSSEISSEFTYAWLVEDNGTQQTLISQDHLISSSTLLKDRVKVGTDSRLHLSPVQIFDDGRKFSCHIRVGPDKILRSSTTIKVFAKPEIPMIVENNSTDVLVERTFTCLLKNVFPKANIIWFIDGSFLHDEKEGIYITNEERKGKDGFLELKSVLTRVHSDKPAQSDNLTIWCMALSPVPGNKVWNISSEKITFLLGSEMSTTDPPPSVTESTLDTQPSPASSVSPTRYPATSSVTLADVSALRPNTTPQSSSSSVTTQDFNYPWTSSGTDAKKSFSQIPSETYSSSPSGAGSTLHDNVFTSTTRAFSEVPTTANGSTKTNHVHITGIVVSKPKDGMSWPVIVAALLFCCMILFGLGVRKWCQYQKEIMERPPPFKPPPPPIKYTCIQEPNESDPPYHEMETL

T3: native cynomolgus monkey CD96 on primary cynomolgus monkey T cells (cynomolgus monkey, UniProt A0A2K5TWV6 22-569)
T3 construct: whole, on cells
T3 sequence: T2 sequence

B1: 42Y073-86F08-66 (antibody, human IgG1, kappa)
heavy: not shown
light: DIQLTQSPSSLSASVGDRVTITCRASQSISSYLNWYQQKPGKAPKLLIYAASSLQSGVPSRFSGSGSGTDFTLTISSLQPEDFATYYCQQVLHTITFGGGTKVEIKRTVAAPSVFIFPPSDEQLKSGTASVVCLLNNFYPREAKVQWKVDNALQSGNSQESVTEQDSKDSTYSLSSTLTLSKADYEKHKVYACEVTHQGLSSPVTKSFNRGEC
notes: expressed in CHO or HEK cells; also called GSK 6097608; GSK6097608
B2: 42Y073-86F08-3 (antibody, V domains shown)
VH: QVQLVQSGAEVKKPGSSVKVSCKASGGTFVNYAISWVRQAPGQGLEWMGGIIPALGTANYAQKFQGRVTITADESTSTAYMELSSLRSEDTAVYYCARGAGYYGDKDPMDVWGQGTTVTVSS
VL: DIQLTQSPSSLSASVGDRVTITCRASQSISSYLNWYQQKPGKAPKLLIYAASSLQSGVPSRFSGSGSGTDFTLTISSLQPEDFATYYCQQVLHTITFGGGTKVEIK

How the values were obtained:
[1] = biological target: T1, human CD96v1 expressed on HEK cells; assay: flow cytometry on transiently transfected HEK cells (normalised MFI), upper left panel
[2] = biological target: T2, cynomolgus monkey CD96v2 expressed on …; assay: as above
[3] = biological target: T3, native cynomolgus monkey CD96 on …; assay: flow cytometry on activated primary cynomolgus monkey T cells (PE median MFI), pooled donor
[4] = biological target: T2, cynomolgus monkey CD96v2 expressed on …; assay: flow cytometry, CHO cells expressing cynomolgus CD96v2
Experimental: CHO cells expressing human CD96v2 or cynomolgus monkey CD96v2 were prepared in PBS. The cynomolgus monkey CD96v2 cells were stained with 1 μM violet proliferation dye (VPD450). […] The stained CHO-cyCD96 and unstained CHO-huCD96 cells were combined and added to wells of a 384-well assay plate together with dilutions of test anti-CD96 binding proteins for 1h at 4° C. Cells were further incubated with anti-IgG APC conjugate antibody and the amount of surface bound antibody on each of the CHO-cyCD96 and CHO-huCD96 cells was determined by flow cytometry. Median fluorescence intensity (MFI) values were fitted using a 4 parameter logistic model to calculate the EC50 of binding.

Binder	EC50 (read off the curve) [1] [nM]	EC50 (read off the curve) [2] [nM]	EC50 (read off the curve) [3] [nM]	EC50 [4] [nM]
B1	~4	~8	~0.06	–
B2	–	–	–	0.08
